The assay deals with GFP with a c-Myc nuclear localization signal at the C-terminus (GFP-NLS). Put plainly: label-free LC MS/MS.

Turning to “AAV-DJ capsid incorporating VP1 with a GFPnb inserted at position H631, supplemented with wild type VP2/VP3 (complex)”, the GFP:capsid (GFP-NLS per capsid) is 1 to 3.

The values above are taken from paper PMC11343202.
